Assay results published in US20230295310A1 (ABCELLERA BIOLOGICS, published 2023).
Residue numbers refer to the chain shown, from its start.

B1: mAb 47 (antibody, V domains shown)
V domain 1: QAQLVQSGSELKKPGASVKVSCKASGYTFTKHSMNWVRQAPGQGLEWMGWINTNTGNPTYAQGFTGRFVFSLDTSVTTAYLQISSLKAEDTAVYYCAREGDYDFWSGFFNFDYWGQGTLVTVSS
V domain 2: B1 V domain 1
B2: mAb 113 (antibody, V domains shown)
VH: EVQLVESGGGLVKTGGSLRLSCVASGFSFKKAWMNWVRQAPGKGLEWVGRIKRNTDGGTTDYAAPVKGRFTLSRDDSKNTLYLQMNSLKTEDTAVYYCTTLDSSSWYVGYYYMDVWGKGTTVTVSS
VL: DIQMTQSPSSVSASVGDRVTITCRASQDINNWLAWYQQKPGKAPKILIYTASSLQSGVPSRFSGSGSGTDFTLTISSLQPEDFATYYCQQAHSLPITFGQGTRLEIK
B3: mAb 120 (antibody, V domains shown)
VH: B2 VH with T60A, N79K, Y82F, W106Y
VL: B2 VL with I46L, S76G
B4: mAb 117 (antibody, V domains shown)
VH: B2 VH with W106L
VL: B2 VL with I46L
B5: mAb 116 (antibody, V domains shown)
VH: B2 VH with T55S
VL: B2 VL with S9F
B6: mAb 114 (antibody, V domains shown)
VH: B2 VH with T59P, T60A, N79K
VL: B2 VL with T20I, Q37L, K39R, I46L, T50A, S76G, K107Q
B7: mAb 115 (antibody, V domains shown)
VH: B2 VH with L18H, T55S, T71I
VL: B2 VL with S53N, Y87F, S93G
B8: mAb 118 (antibody, V domains shown)
VH: EVQLVESGGGLVQPGRSLRLSCAASGFTFDDYTMHWVRQAPGKGLEWVSGISWNSGSIGYADSVKGRFTISRDNAKNSLYLQMNSLRAEDTALYYCSKDSSGYGYYLNYSLDVWGKGTTVTVSS
VL: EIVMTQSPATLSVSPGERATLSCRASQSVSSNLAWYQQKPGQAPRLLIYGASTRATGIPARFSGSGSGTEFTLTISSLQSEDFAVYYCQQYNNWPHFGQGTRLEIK
B9: mAb 119 (antibody, V domains shown)
VH: B8 VH
VL: EIVMTQSPATLSVSPGERATLSCRASQSVSNLAWYQQKPGQAPRLLIYGASTRATGIPARFSGSGSGTEFTLTISSLQSEDFAVYYCQQYNNWPHFGQGTRLQIK

Molecular target: human CD3 (human, UniProt P07766 23-207; P04234 22-171; P09693 23-182)
Sequence (P07766 23-207, chain 1 of 3): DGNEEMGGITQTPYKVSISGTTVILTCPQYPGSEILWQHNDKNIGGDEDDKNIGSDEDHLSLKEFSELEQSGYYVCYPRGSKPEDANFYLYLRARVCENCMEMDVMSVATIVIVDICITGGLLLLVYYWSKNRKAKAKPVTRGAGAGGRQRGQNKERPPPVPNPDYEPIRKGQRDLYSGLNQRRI
Sequence (P04234 22-171, chain 2 of 3): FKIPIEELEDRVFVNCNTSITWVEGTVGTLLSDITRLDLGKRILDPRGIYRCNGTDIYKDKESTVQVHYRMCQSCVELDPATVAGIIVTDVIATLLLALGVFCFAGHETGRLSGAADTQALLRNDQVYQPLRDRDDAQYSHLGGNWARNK
Sequence (P09693 23-182, chain 3 of 3): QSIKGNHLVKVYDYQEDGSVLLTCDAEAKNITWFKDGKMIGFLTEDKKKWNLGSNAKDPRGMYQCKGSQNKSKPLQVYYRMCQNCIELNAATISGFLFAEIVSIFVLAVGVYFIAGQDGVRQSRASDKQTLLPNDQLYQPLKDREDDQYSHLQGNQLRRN
Experiment: cell-based or functional assay

Binder | CD4 EC50 (nM); CD69/CD25 on human T cells, plate-coated antibody | CD8 EC50 (nM); CD69/CD25 on human T cells, plate-coated antibody
B1 | 23.4 nM | 23.8 nM
B2 | 8.81 nM | 8.89 nM
B3 | 6.41 nM | 6.46 nM
B4 | 6.49 nM | 6.59 nM
B5 | 6.96 nM | 7.01 nM
B6 | 12.6 nM | 12.5 nM
B7 | 7 nM | 7.16 nM
B8 | 10.4 nM | 11.2 nM
B9 | 12.9 nM | 13.8 nM
